Assay results as given in paper PMC5017703, “The Neurite Outgrowth Inhibitory Nogo-A-Δ20 Region Is an Intrinsically Disordered Segment Harbouring Three Stretches with Helical Propensity” (PLoS ONE, 2016).

Key:
[1] = target: S1PR2 ECL3 peptide ECL3 (Homo sapiens) (UniProt O95136); assay: MST; conditions: cited from earlier work
[2] = target: S1PR2 ECL2 peptide ECL2 (Homo sapiens) (UniProt O95136); assay: MST; conditions: cited from earlier work
[3] = target: the molecule itself; assay: pulsed field gradient NMR diffusion; Nogo-A-Δ20 at 30 μM or 560 μM, without or with TCEP (5 mM or 2 mM), pH 7.4, 6°C; diffusion coefficients compared

Molecule: Nogo-A-Δ20 Δ20 (from UniProt Q9JK11)
- Kd [1]: 350 nM
- Kd [2]: 280 nM

B1: Nogo-A-Δ20 (residues 544–725 of the rat Nogo-A sequence) (domain or fragment, UniProt Q9JK11-1 544-725, looked up)
chain: TGTKIAYETKVDLVQTSEAIQESLYPTAQLCPSFEEAEATPSPVLPDIVMEAPLNSLLPSAGASVVQPSVSPLEAPPPVSYDSIKLEPENPPPYEEAMNVALKALGTKEGIKEPESFNAAVQETEAPYISIACDLIKETKLSTEPSPDFSNYSEIAKFEKSVPEHAELVEDSSPESEPVDLF
notes: Nogo-A (reticulon 4-A), rat, 1163 residues; Nogo-A-Δ20 region, residues 544-725 (182 residues), numbered as in the rat Nogo-A protein; the T7-tag lies between the N-terminal His6-tag and Nogo-A-Δ20; The N-terminal His6-tag was removed with thrombin; also called 15N-labelled Nogo-A-Δ20; [13C, 15N]-Nogo-A-Δ20; not shown: His6, N-terminal, cleaved; T7-tag, N-terminal, kept; His6, C-terminal, kept
- binding result [3]: binds
